Experimental findings from publication PMC7917791 are described below.

In the experiment the target is HAP1 phage capsid (T4 phage mutant with a nonsense mutation in the hoc gene, no functional Hoc protein on the capsid) (T4 phage (mutant HAP1)). Put plainly: SEC; RFP-Hoc and new HAP1 virions produced together in infected E. coli; filtered lysate on Sepharose 4B (2.5 x 95 cm), 0.063 M phosphate buffer pH 7.2, 0.3 mL/min; phages eluted in the highest molecular weight fraction (A), non-incorporated RFP-Hoc in fraction B; fluorescence and titer of the fractions measured.

Sequence of RFP-Hoc fusion (red fluorescent protein fused to the N-terminal end of the T4 phage Hoc protein) (P18056 whole entry, the tested form may be a part): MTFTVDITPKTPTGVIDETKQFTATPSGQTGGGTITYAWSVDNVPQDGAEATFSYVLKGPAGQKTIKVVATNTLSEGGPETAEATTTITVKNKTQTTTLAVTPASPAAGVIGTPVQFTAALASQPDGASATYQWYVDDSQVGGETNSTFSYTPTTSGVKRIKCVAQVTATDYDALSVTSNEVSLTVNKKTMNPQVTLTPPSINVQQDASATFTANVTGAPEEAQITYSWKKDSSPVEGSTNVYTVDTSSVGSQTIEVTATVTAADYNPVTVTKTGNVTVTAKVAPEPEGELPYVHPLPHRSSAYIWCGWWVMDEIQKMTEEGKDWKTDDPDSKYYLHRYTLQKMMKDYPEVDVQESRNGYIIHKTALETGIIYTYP

As to “RFP-Hoc fusion (red fluorescent protein fused to the N-terminal end of the T4 phage Hoc protein) (from UniProt P18056 1-376) (natural protein)”, the fluorescence of the phage fraction A after size exclusion chromatography amounted to 5.12e+06 a.u.
